{"source": "patent US20180127480A1", "key": {"[1]": {"molecular_target": "biotinylated human SIRPα allele 2 domain 1 (a2d1) (human) (UniProt P78324)", "sequence (P78324 other isoform, or with tags, fused parts or gaps)": "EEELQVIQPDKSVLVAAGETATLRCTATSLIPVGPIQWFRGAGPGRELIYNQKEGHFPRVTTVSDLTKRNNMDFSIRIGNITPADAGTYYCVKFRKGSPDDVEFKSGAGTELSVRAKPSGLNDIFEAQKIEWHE", "assay": "SPR, Biacore T100, biotinylated SIRPα on SA chip, 25 C, 1:1 Langmuir model"}, "[2]": {"molecular_target": "biotinylated human SIRPα allele 1 domain 1 (a1d1) (human) (UniProt P78324)", "sequence (P78324 other isoform, or with tags, fused parts or gaps)": "as above", "assay": "SPR, Biacore T100, biotinylated SIRPα on SA chip, 25 C, 1:1 Langmuir model"}}, "note": "pKd: −log10 of the molar value.", "data": [{"substance": "WT CD47 (human CD47 IgSF domain, C15G, C-terminal 8x histidine tag) (from UniProt Q08722 19-135) (ligand)", "values": [{"measurement": "pKd", "setting": "[1]", "value": 6.32}, {"measurement": "pKd", "setting": "[2]", "value": 6.55}]}]}
